From PMC12697864, “cGAS Inhibits ALDH2 to Suppress Lipid Droplet Function and Regulate MASLD Progression” (Advanced Science, 2025)

Target: the molecule itself
Assay: mass photometry; TWOMP (Refeyn), room temperature, 1X PBS with 1 mM β-mercaptoethanol, proteins at 10 nM-400 nM; hALDH2 with NAD+, with or without mcGAS; tetramer formation

B1: His-ALDH2, purified full-length human ALDH2 (enzyme, UniProt P05091 18-517, looked up)
chain: SAAATQAVPAPNQQPEVFCNQIFINNEWHDAVSRKTFPTVNPSTGEVICQVAEGDKEDVDKAVKAARAAFQLGSPWRRMDASHRGRLLNRLADLIERDRTYLAALETLDNGKPYVISYLVDLDMVLKCLRYYAGWADKYHGKTIPIDGDFFSYTRHEPVGVCGQIIPWNFPLLMQAWKLGPALATGNVVVMKVAEQTPLTALYVANLIKEAGFPPGVVNIVPGFGPTAGAAIASHEDVDKVAFTGSTEIGRVIQVAAGSSNLKRVTLELGGKSPNIIMSDADMDWAVEQAHFALFFNQGQCCCAGSRTFVQEDIYDEFVERSVARAKSRVVGNPFDSKTEQGPQVDETQFKKILGYINTGKQEGAKLLCGGGIAADRGYFIQPTVFGDVQDGMTIAKEEIFGPVMQILKFKTIEEVVGRANNSTYGLAAAVFTKDLDKANYLSQALQAGTVWVNCYDVFGAQSPFGGYKMSGSGRELGEYGLQAYTEVKTVTVKVPQKNS
notes: aldehyde dehydrogenase 2 (ALDH2), human, full-length gene, codon-optimised, in pET28a; Two preparations: likely apo hALDH2, and tetrameric hALDH2 isolated by SEC after incubation with 1 mM NAD+; Tetramer forms with NAD+ (mass photometry); also called hALDH2; bacterially purified ALDH2 proteins; source: E. coli Rosetta (DE3), purified (Ni Sepharose, Q column, SEC); not shown: His6, N-terminal, kept
stoichiometry N: 4
